Kd data for 1 molecule are collected here from article PMC3291655, “LEDGF/p75-Independent HIV-1 Replication Demonstrates a Role for HRP-2 and Remains Sensitive to Inhibition by LEDGINs” (PLoS Pathogens, 2012).

The target in experiment [1] is T1, MBP-LEDGF/p75(325-530), maltose binding protein fusion of the C-terminal end of LEDGF/p75 (human, UniProt O75475-1 325-530).
T1 construct: also called MBP-LEDGF_(325–530); LEDGF_(325–530); source: E. coli BL21(DE3), purified (amylose resin)
T1 sequence (looked up): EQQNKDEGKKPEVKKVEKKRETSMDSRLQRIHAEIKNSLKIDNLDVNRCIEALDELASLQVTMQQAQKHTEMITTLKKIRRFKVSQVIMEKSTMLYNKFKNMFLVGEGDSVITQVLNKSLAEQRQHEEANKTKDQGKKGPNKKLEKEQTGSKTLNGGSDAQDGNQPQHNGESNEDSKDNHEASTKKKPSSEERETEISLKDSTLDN
In words: AlphaScreen or HTRF; IN-His6 titrated (2-fold dilutions from 500 to 1.9 nM) against 10 nM MBP fusion; anti-MBP donor beads and Ni2+-chelate acceptor beads; 25 mM Tris-HCl pH 7.4, 150 mM NaCl, 1 mM MgCl2, 0.1% Tween-20, 0.1% BSA; 1 h at 4°C, then 1 h at RT with beads; apparent KD, one-site specific binding with ligand depletion. As to conditions: both partners purified. A general note: Bead proximity is the source of the signal in Alpha formats.

Experiment [2] has as its target T2, MBP-HRP-2(448-670), maltose binding protein fusion of the C-terminal part of Hepatoma-derived growth factor … (human, UniProt Q7Z4V5-2 448-670).
T2 construct: Hepatoma-derived growth factor related protein 2 (HRP-2), human, C-terminal part aa 448-670, which holds the IBD (aa 470-593); the range called the C-terminal end stops at 670, which fits the 670-residue isoform; amplified from p3xFlagHRP-2 and ligated into pMAL-c2E; source: E. coli, purified (amylose resin)
T2 sequence (looked up): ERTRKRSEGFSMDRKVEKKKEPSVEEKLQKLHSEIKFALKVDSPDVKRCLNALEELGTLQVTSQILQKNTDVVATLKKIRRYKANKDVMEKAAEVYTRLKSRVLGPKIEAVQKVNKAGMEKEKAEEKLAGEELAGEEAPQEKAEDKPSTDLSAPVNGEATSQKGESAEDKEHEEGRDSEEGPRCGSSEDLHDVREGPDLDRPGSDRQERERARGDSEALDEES
The description is as above. As to conditions: both partners purified.

B1: HIV-1 integrase with a C-terminal His6 tag (enzyme)
chain: FLDGIDKAQEEHEKYHSNWRAMASDFNLPPVVAKEIVASCDKCQLKGEAMHGQVDCSPGIWQLDCTHLEGKVILVAVHVASGYIEAEVIPAETGQETAYFLLKLAGRWPVKTVHTDNGSNFTSTTVKAACWWAGIKQEFGIPYNPQSQGVIESMNKELKKIIGQVRDQAEHLKTAVQMAVFIHNFKRKGGIGGYSAGERIVDIIATDIQTKELQKQITKIQNFRVYYRDSRDPVWKGPAKLLWKGEGAVVIQDNSDIKVVPRRKAKIIRDYGKQMAGDDCVASRQDED
Consider B1, for which the Kd in experiment [1] worked out at 6.6 nM; in experiment [2] it was 89.8 nM.
